One block for each substance: values may come before it.
Legend:
[1] = target: C-terminal truncation mutant of tetradecamer GroEL, Δ526 (E. coli) (UniProt P0A6F5)
[2] = target: C-terminal truncation mutant of tetradecamer GroEL, Δ526 (E. coli) (UniProt P0A6F5); assay: cryo-EM structure; acid-urea denatured PepQ (7 μM final) titrated into GroEL or Δ526 (8 μM tetradecamers) in TKM buffer, no nucleotide, room temperature 5 min; asymmetric 3D classification and refinement
PepQ-24TMR (E. coli) [3] = target: PepQ-24TMR (E. coli) (UniProt P21165); assay: single-molecule two-colour co-incidence detection; PepQ-24OG and PepQ-24TMR 1:1, denatured in acid-urea, spontaneous folding at 2 nM monomer in TKM buffer with 0.1 mg ml^-1 BSA, 23 °C, 10 min, then diluted 20-fold to 100 pM
PepQ-24TMR (E. coli) [4] = target: PepQ-24TMR (E. coli) (UniProt P21165); assay: single-molecule two-colour co-incidence detection; PepQ-24OG and PepQ-24TMR 1:1, denatured, refolded at 100 nM total monomer with GroEL, GroES and ATP at 23 °C, then diluted 1,000-fold to 100 pM; cross-correlation of fluorescence bursts

observed folding rate constant of PepQ by recovery of enzymatic activity, bound to Δ526 (200 nM) and refolded with GroES (400 nM) and ATP (2 mM) [1]: 0.106 min⁻¹
Substance: wild type E. coli PepQ (from UniProt P21165 1-443) (enzyme)

stoichiometry N [2]: 14
Substance: C-terminal truncation mutant of tetradecamer GroEL, Δ526 (from UniProt P0A6F5 2-526) (domain or fragment)

Substance: PepQ-24OG (from UniProt P21165 1-443) (enzyme)
co-incidence (PepQ-24TMR (E. coli) [3]): < 1% | co-incidence (most likely overlap) (PepQ-24TMR (E. coli) [3]): 0.75% | coincident fraction (PepQ-24TMR (E. coli) [4]): 10%

Source: paper PMC5497066
